In assay [1] the target is T1, rHuman P-Cadherin/Fc Chimera, CF (R&D Systems Cat#861-PC) (human, UniProt P22223 108-654).
T1 construct: Bought protein; also called CDH3; Fc part of the bought chimera not given
The experiment in a line: MSD ECL multi-spot assay, antigen spotted on plate, Fab 0.28 uM; blank spot 1773.

Assay [2] deals with T2, rHuman ErbB2/Fc Chimera, CF (R&D Systems Cat#1129-ER) (human, UniProt P04626 23-652).
T2 construct: Bought protein; also called HER2/neu; human epidermal growth factor 2 receptor; Fc part of the bought chimera not given
Kind of assay: MSD ECL multi-spot assay, antigen spotted on plate, Fab 0.13 uM; blank spot 786.

Assay [3] concerns the target T3, rHuman EGF R/Fc Chimera, CF (R&D Systems Cat#344-ER) (human, UniProt P00533 25-645).
T3 construct: Bought protein; also called epidermal growth factor receptor; Fc part of the bought chimera not given
The assay is described as above.

The target in assay [4] is T4, rHuman HGF R/c-MET/Fc Chimera, CF (R&D Systems Cat#358-MT/CF) (human, UniProt P08581 25-932).
T4 construct: Bought protein; also called HGF R/Fc; hepatocyte growth factor receptor; Fc part of the bought chimera not given
Described as above.

Assay [5] deals with T5, rHuman Notch-1/Fc Chimera, CF (R&D Systems Cat#3647-TK) (human, UniProt P46531 19-526).
T5 construct: Bought protein; Fc part of the bought chimera not given
Described as above.

Assay [6] has as its target T6, rHuman CD44/Fc Chimera, CF (R&D Systems Cat#3660-CD) (human, UniProt P16070 21-220).
T6 construct: Bought protein; Fc part of the bought chimera not given
The description is as above.

Assay [7] addresses T7, rHuman IGF-1 sR (IGF-1 sR), CF (R&D Systems Cat#391-GR) (human, UniProt P08069 31-932).
T7 construct: Bought soluble receptor; also called insulin-like growth factor-1 soluble receptor; IGF-R1
Described as above.

Assay [8] concerns the target T8, rHuman Erythropoietin R/Fc Chimera, CF (R&D Systems Cat#963-ER) (human, UniProt P19235 25-250).
T8 construct: Bought protein; also called EPOR; EPO R/Fc; Fc part of the bought chimera not given
T8 sequence: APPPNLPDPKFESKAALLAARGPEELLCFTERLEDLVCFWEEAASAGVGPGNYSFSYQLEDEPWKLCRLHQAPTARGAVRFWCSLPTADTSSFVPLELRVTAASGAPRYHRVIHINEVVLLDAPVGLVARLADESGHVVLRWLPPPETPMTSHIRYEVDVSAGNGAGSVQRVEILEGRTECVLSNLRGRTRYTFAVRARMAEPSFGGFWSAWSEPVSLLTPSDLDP
The description is as above.

For assay [9], the target named is T9, Recombinant Human DLL4 (R&D Systems Cat#1506-D4/CF) (human, UniProt Q9NR61 27-524).
T9 construct: Bought protein; also called delta-like protein 4; rHuman DLL4
Described as above.

Assay [10] addresses T3, rHuman EGF R/Fc Chimera, CF (R&D …). The experiment in a line: MSD ECL multi-spot assay, antigen spotted on plate, Fab 1.19 uM; blank spot 11543.
Assay [11] concerns the target T5, rHuman Notch-1/Fc Chimera, CF (R&D …). Described as above.
For assay [12], the target named is T7, rHuman IGF-1 sR (IGF-1 sR), CF (R&D …). The description is as above.
In assay [13] the target is T1, rHuman P-Cadherin/Fc Chimera, CF (R&D …). The description is as above.
The target in assay [14] is T8, rHuman Erythropoietin R/Fc Chimera, CF …. The assay is described as above.
The target of assay [15] is T9, Recombinant Human DLL4 (R&D Systems …). The description is as above.
Assay [16] deals with T5, rHuman Notch-1/Fc Chimera, CF (R&D …). Kind of assay: MSD ECL multi-spot assay, antigen spotted on plate, Fab 0.48 uM; blank spot 2877.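 Further: blank spot per well as comparator with Hit at signal to blank ratio of 4 or more.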
The target in assay [17] is T9, Recombinant Human DLL4 (R&D Systems …). Described as above.
For assay [18], the target named is T2, rHuman ErbB2/Fc Chimera, CF (R&D …). Kind of assay: MSD ECL multi-spot assay, antigen spotted on plate, Fab 0.06 uM; blank spot 842.
In assay [19] the target is T6, rHuman CD44/Fc Chimera, CF (R&D Systems …). The description is as above.
The target of assay [20] is T7, rHuman IGF-1 sR (IGF-1 sR), CF (R&D …). Described as above.
Assay [21] addresses T9, Recombinant Human DLL4 (R&D Systems …). The assay is described as above.
Assay [22] concerns the target T2, rHuman ErbB2/Fc Chimera, CF (R&D …). The experiment in a line: MSD ECL multi-spot assay, antigen spotted on plate, Fab 0.51 uM; blank spot 1393.
The target in assay [23] is T4, rHuman HGF R/c-MET/Fc Chimera, CF (R&D …). The description is as above.
For assay [24], the target named is T6, rHuman CD44/Fc Chimera, CF (R&D Systems …). The description is as above.
The target of assay [25] is T7, rHuman IGF-1 sR (IGF-1 sR), CF (R&D …). Described as above.
The target in assay [26] is T9, Recombinant Human DLL4 (R&D Systems …). Described as above.
In assay [27] the target is T5, rHuman Notch-1/Fc Chimera, CF (R&D …). The experiment in a line: MSD ECL multi-spot assay, antigen spotted on plate, Fab 0.93 uM; blank spot 4760.
The target in assay [28] is T7, rHuman IGF-1 sR (IGF-1 sR), CF (R&D …). The description is as above.
In assay [29] the target is T8, rHuman Erythropoietin R/Fc Chimera, CF …. Described as above.

B1: Fab VH1-46_IGHD2-15*01_IGHJ2*01 & L12_IGKJ1*01 (Fab, V domains shown)
VH: QVQLVQSGAEVKKPGASVKVSCKASGYTFTSYYMHWVRQAPGQGLEWMGIINPSGGSTSYAQKFQGRVTMTRDTSTSTVYMELSSLRSEDTAVYYCAREGYCSGGSCYSYWYFDLWGRGTLVTVSS
VL: not shown
On to B1, for which the ECL signal in assay [1] came out at 8060.

B2: Fab VH1-8_IGHD2-2*01_IGHJ6*01 & L12_IGKJ1*01 (Fab, V domains shown)
VH: QVQLVQSGAEVKKPGASVKVSCKASGYTFTSYDINWVRQATGQGLEWMGWMNPNSGNTGYAQKFQGRVTMTRNTSISTAYMELSSLRSEDTAVYYCARGGYCSSTSCYADYYYYYGMDVWGQGTTVTVSS
VL: not shown
In the case of B2, the ECL signal in assay [2] was 840; in assay [3], 859; in [4], 969; in assay [5], 1320; in [6], 932; in assay [7] it was 1170. The ECL signal in assay [8] is 1110; in assay [9], 9850.

B3: Fab VH1-46_IGHD6-13*01_IGHJ4*01 & L2_IGKJ1*01 (Fab, V domains shown)
VH: QVQLVQSGAEVKKPGASVKVSCKASGYTFTSYYMHWVRQAPGQGLEWMGIINPSGGSTSYAQKFQGRVTMTRDTSTSTVYMELSSLRSEDTAVYYCAREGYSSSWYDYFDYWGQGTLVTVSS
VL: not shown
Regarding B3, the ECL signal in assay [10] came to 32000; in assay [11], 41700; in assay [12], 14100; in [13], 34600; in assay [14] it was 141000; in assay [15], 39600.

B4: Fab VH1-46_IGHD6-13*01_IGHJ4*01 & A27_IGKJ1*01 (Fab, V domains shown)
VH: QVQLVQSGAEVKKPGASVKVSCKASGYTFTSYYMHWVRQAPGQGLEWMGIINPSGGSTSYAQKFQGRVTMTRDTSTSTVYMELSSLRSEDTAVYYCAREGYSSSWYDYFDYWGQGTLVTVSS
VL: not shown
notes: Fab from E. coli; VH joined to the CH1 (Flag and His tags) of Plasmid A, VL to the kappa CL of Plasmid C
In the case of B4, the figures for the ECL signal in assay [16] and in assay [17] were 12800 and 13700, respectively.

B5: Fab VH1-3_IGHD4-23*01_IGHJ4*01 & L12_IGKJ1*01 (Fab, V domains shown)
VH: QVQLVQSGAEVKKPGASVKVSCKASGYTFTSYAMHWVRQAPGQRLEWMGWSNAGNGNTKYSQEFQGRVTITRDTSASTAYMELSSLRSEDMAVYYCARDDYGGNSDYFDYWGQGTLVTVSS
VL: not shown
Take B5: the ECL signal was 1570 in [18], 1680 in [19], 2320 in [20] and 13600 in assay [21].

B6: Fab VH4-34_IGHD7-27*01_IGHJ4*01 & L5_IGKJ1*01 (Fab, V domains shown)
VH: QVQLQQWGAGLLKPSETLSLTCAVYGGSFSGYYWSWIRQPPGKGLEWIGEINHSGSTNYNPSLKSRVTISVDTSKNQFSLKLSSVTAADTAVYYCARANWGDYFDYWGQGTLVTVSS
VL: DIQMTQSPSSVSASVGDRVTITCRASQGISSWLAWYQQKPGKAPKLLIYAASSLQSGVPSRFSGSGSGTDFTLTISSLQPEDFATYYCQQANSFPPWTFGQGTKVEIKR
notes: as for B4
B6: the ECL signal in assay [22] stood at 1700; in [23] it was 1740; in [24] it was 1880; in assay [25], 1740; in assay [26], 5650.

B7: Fab VH1-46_IGHD3-10*01_IGHJ4*01 & L12_IGKJ1*01 (Fab, V domains shown)
VH: QVQLVQSGAEVKKPGASVKVSCKASGYTFTSYYMHWVRQAPGQGLEWMGIINPSGGSTSYAQKFQGRVTMTRDTSTSTVYMELSSLRSEDTAVYYCAREYYYGSGSYYNDYFDYWGQGTLVTVSS
VL: not shown
In the case of B7, the ECL signal in assay [27] was determined as 23700; in assay [28], 13900; in assay [29] it was 16700.

The record behind these values is patent US20120058906A1 (published 2012).
